# From the supplement of paper PMC10567573
# B1: STX5 (parent)
# chain: ESTIVELGSIFQQLAHMVKEQEET
# Variants of: B1
# Assay: protein stability index of a GFP-peptide fusion (GPS, HEK-293T) (PSI 1-6); higher = more stable
# Details: c terminus: a fixed tail appended
# 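Further: lentivirally expressed fusions sorted by FACS into six bins by GFP to DsRed ratio, PSI derived from sequencing read proportions per bin multiplied by bin number.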
row,Variant,protein stability index
1,K19M,1.9
2,K19A,1.81
3,K19Y,1.17
4,K19E,2.92
5,K19I,1.59
6,K19R,1.85
7,K19S,1.97
8,K19Q,2.32
9,K19N,2.95
10,K19G,2.76
11,K19H,2.44
12,K19C,1.41
13,K19D,4.35
14,K19P,4.08
15,K19F,2.31
16,K19T,2.41
17,V18L,1.8
18,V18N,4.38
19,V18S,4.14
20,V18F,1.81
21,V18M,2.79
22,V18T,3.45
23,V18D,5.09
24,V18K,4.16

row,Variant,protein stability index
1,V18I,2.41
2,V18Y,2.44
3,V18A,3.27
4,V18E,4.64
5,V18R,3.65
6,V18W,2.22
7,V18P,4.45
8,V18G,4.6
9,V18Q,2.37
10,V18H,3.73
11,V18C,2.44
12,S9Q,2.1
13,S9L,1.71
14,S9E,2.08
15,S9T,2.11
16,S9N,2.26
17,S9G,3.22
18,S9Y,1.46
19,S9H,2.64
20,S9V,1.8
21,S9A,1.65
22,S9C,1.63
23,S9R,2.41
24,S9M,1.87

row,Variant,protein stability index
1,S9I,1.32
2,S9K,2.34
3,S9D,2.55
4,G8Q,1.68
5,G8N,2.44
6,G8M,1.35
7,G8P,3.99
8,G8D,2.28
9,G8T,2.69
10,G8C,2.33
11,G8F,2.06
12,G8L,1.85
13,G8A,2.47
14,G8E,3.02
15,G8R,1.84
16,G8I,2.24
17,G8K,1.94
18,G8Y,3.89
19,G8S,2.79
20,G8H,2.48
21,V5Q,2.07
22,V5L,2.04
23,V5E,2.12
24,V5G,2.79

row,Variant,protein stability index
1,V5F,1.83
2,V5K,3.1
3,V5I,2.55
4,V5N,2.04
5,V5R,2.88
6,V5M,2.56
7,V5D,3
8,V5A,2.28
9,V5Y,2.28
10,V5P,3.5
11,V5H,1.71
12,V5W,2.22
13,V5S,2.46
14,V5C,2.58
15,V5T,1.99
16,I10D,5.88
17,I10M,2.6
18,I10V,3.1
19,I10N,5.07
20,I10S,4.89
21,I10P,5.58
22,I10A,4.32
23,I10E,5.46
24,I10T,4.49

row,Variant,protein stability index
1,I10L,2.63
2,I10H,4.5
3,I10W,2.58
4,I10Y,3.49
5,I10R,3.9
6,I10C,3.72
7,I10K,3.69
8,I10Q,4.27
9,I10F,2.26
10,L14W,3.17
11,L14K,5.2
12,L14F,1.69
13,L14G,4.64
14,L14A,4.31
15,L14Y,1.81
16,L14H,4.11
17,L14I,2.09
18,L14R,5.32
19,L14Q,4.75
20,L14D,5.05
21,L14N,5.24
22,L14M,3.77
23,L14C,4.42
24,L14E,5.33

row,Variant,protein stability index
1,L14S,5.26
2,L14P,4.93
3,L14T,4.78
4,L14V,2.81
5,E20W,1.86
6,E20C,2.54
7,E20M,4.03
8,E20D,2.78
9,E20F,1.98
10,E20G,2.02
11,E20P,1.61
12,E20S,2.08
13,E20A,2.19
14,E20H,1.62
15,E20R,1.76
16,E20Q,1.12
17,E20N,1.53
18,E20K,2.86
19,E20Y,3.75
20,E20T,1.18
21,Q13K,2.8
22,Q13C,2.32
23,Q13M,1.98
24,Q13E,2.57

row,Variant,protein stability index
1,Q13F,1.57
2,Q13S,2.95
3,Q13L,1.54
4,Q13P,4.54
5,Q13T,3.28
6,Q13Y,2.37
7,Q13H,2.43
8,Q13G,4.12
9,Q13V,2.16
10,Q13A,2.4
11,Q13W,1.88
12,Q13N,2.23
13,Q13I,1.44
14,E22S,2.44
15,E22Y,1.39
16,E22K,2
17,E22G,1.06
18,E22D,1.97
19,E22H,1.3
20,E22N,1.98
21,E22W,1.53
22,E22M,2.89
23,E22A,2.75
24,E22C,2.4

row,Variant,protein stability index
1,E22T,1.39
2,E22F,2.88
3,E22P,1.69
4,E22I,2.7
5,E22L,5.42
6,E22Q,2.65
7,I4V,3.59
8,I4H,3.14
9,I4R,3
10,I4N,3.05
11,I4K,2.55
12,I4L,1.81
13,I4P,2.93
14,I4Q,3.69
15,I4Y,1.91
16,I4T,2.73
17,I4W,2.54
18,I4M,1.57
19,I4S,2.64
20,M17E,3.41
21,M17A,2.83
22,M17W,2.06
23,M17F,2.46
24,M17Q,2.26

row,Variant,protein stability index
1,M17L,1.7
2,M17R,3
3,M17K,2.06
4,M17N,4.16
5,M17I,2.3
6,M17P,4.59
7,M17H,3.7
8,M17G,3.86
9,M17Y,3.29
10,M17C,3.6
11,M17D,4.11
12,M17T,4.18
13,M17S,3.4
14,F11L,2.8
15,F11N,5.61
16,F11D,5.77
17,F11K,4.85
18,F11H,5.76
19,F11S,4.27
20,F11V,3.19
21,F11Y,3.19
22,F11W,2.83
23,F11Q,3.48
24,F11R,4.92

row,Variant,protein stability index
1,F11G,5.35
2,F11P,4.65
3,F11C,3.62
4,F11M,2.98
5,F11I,2.27
6,F11A,3.83
7,F11T,4.81
8,E23D,2.19
9,E23C,1.83
10,E23A,1.88
11,E23G,1.28
12,E6K,2.54
13,E6H,2.33
14,E6G,2.75
15,E6L,2.34
16,E6I,3.1
17,E6V,1.62
18,E6C,2.06
19,E6F,2.19
20,E6T,1.91
21,E6R,4.41
22,E6N,3.14
23,E6A,1.65
24,E6M,1.95

row,Variant,protein stability index
1,E6P,2.75
2,E6Y,1.81
3,E6Q,2.33
4,E6D,1.63
5,H16I,1.88
6,H16R,1.79
7,H16N,1.97
8,H16P,4.65
9,H16Y,1.67
10,H16S,2.36
11,H16L,2.75
12,H16M,3
13,H16K,2.27
14,H16E,1.96
15,H16A,2.13
16,H16D,1.78
17,H16V,2.43
18,H16T,3.09
19,H16G,2.13
20,H16Q,1.33
21,H16F,2.02
22,L7I,2.16
23,L7H,4.9
24,L7K,5.07

row,Variant,protein stability index
1,L7V,4.25
2,L7F,3.03
3,L7Y,3.97
4,L7G,5.65
5,L7M,2.48
6,L7C,3.74
7,L7E,5.22
8,L7W,2.99
9,L7P,4.75
10,L7Q,4.89
11,L7R,5.13
12,L7T,4.5
13,L7D,5.12
14,L7S,5.42
15,L7N,4.96
16,Q12H,3.15
17,Q12T,1.93
18,Q12C,1.7
19,Q12S,2.1
20,Q12N,2.99
21,Q12F,2.26
22,Q12M,1.98
23,Q12W,1.32
24,Q12Y,2.17

row,Variant,protein stability index
1,Q12V,2.07
2,Q12I,2.26
3,Q12D,3.34
4,Q12L,3.46
5,Q12P,4.39
6,Q12K,1.79
7,Q12R,2.4
8,Q12A,1.98
9,A15V,2.24
10,A15D,4.28
11,A15Q,2.81
12,A15G,3.91
13,A15I,1.53
14,A15W,2.18
15,A15S,2.99
16,A15N,3.67
17,A15C,2.21
18,A15E,4.21
19,A15P,4.91
20,A15Y,1.74
21,A15M,1.74
22,A15R,2.67
23,A15F,2.09
24,A15H,3.15

row,Variant,protein stability index
1,A15K,3.1
2,A15T,3.66
3,A15L,1.76
4,Q21H,1.97
5,Q21Y,2.23
6,Q21G,2.75
7,Q21L,2.67
8,Q21A,1.67
9,Q21F,1.98
10,Q21S,1.81
11,Q21M,1.87
12,Q21C,1.91
13,Q21D,2.4
14,Q21V,1.73
15,Q21N,2.12
16,Q21E,3.05
17,Q21W,3.33
18,Q21K,2.6
19,Q21R,1.36
20,Q21T,2.88
21,Q21I,1.64
22,Q21P,3.29
